Source: patent US20190343962A1 (GENAGON THERAPEUTICS, published 2019)

Tests used:
[1] = target: native CLPTM1 in membrane-permeabilised O-876 cells (Homo sapiens (Human)) (UniProt O96005); experiment: flow cytometry on permeabilised O-876 cells; half-maximal binding
[2] = target: native CLPTM1 in membrane-permeabilised O-876 cells (Homo sapiens (Human)) (UniProt O96005); experiment: flow cytometry on permeabilised O-876 cells, 10x dilution series; half-maximal binding
[3] = target: T1, native CLPTM1 in membrane-permeabilised O-876 cells (Homo sapiens (Human), UniProt O96005 2-669); experiment: flow cytometry on permeabilised O-876 cells; half-maximal binding
T1 construct: The protein was stained inside permeabilised cells, not only at the surface; also called native target; 0-876 cells expressing native CLPTM1
T1 sequence: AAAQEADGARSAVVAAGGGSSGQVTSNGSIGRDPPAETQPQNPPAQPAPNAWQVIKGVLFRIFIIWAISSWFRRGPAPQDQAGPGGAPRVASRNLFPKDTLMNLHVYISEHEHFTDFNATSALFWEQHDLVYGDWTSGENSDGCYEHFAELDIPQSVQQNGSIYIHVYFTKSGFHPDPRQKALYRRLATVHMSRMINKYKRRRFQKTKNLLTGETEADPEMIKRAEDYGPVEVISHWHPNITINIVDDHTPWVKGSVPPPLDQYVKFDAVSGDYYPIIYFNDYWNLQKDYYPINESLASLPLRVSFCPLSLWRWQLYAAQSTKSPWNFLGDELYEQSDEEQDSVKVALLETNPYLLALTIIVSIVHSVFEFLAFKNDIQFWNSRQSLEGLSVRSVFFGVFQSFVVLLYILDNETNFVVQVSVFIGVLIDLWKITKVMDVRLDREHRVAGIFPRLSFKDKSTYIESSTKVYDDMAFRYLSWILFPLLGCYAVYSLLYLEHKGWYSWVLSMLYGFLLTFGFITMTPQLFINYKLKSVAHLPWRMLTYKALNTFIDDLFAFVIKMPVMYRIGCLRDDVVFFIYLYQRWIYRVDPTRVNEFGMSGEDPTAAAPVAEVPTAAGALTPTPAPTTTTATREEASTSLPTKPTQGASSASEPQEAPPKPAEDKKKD
Protocol: (§1) Affinity of antibodies was determined by finding the half-maximal binding on the native target in a flow cytometry assay. Since the native target is found inside most cells and rarely on the cell surface, the assay was performed using plasma membrane-permeabilised cells, an intra-cellular staining protocol. Using the native target is more applicable when evaluating and comparing various antibodies as it is the true antigen to be bound in a therapeutic setting in vivo. 0-876 cells were permeabilised with BD-fix and permeabilisation buffer (554722 BD-Biosciences). Antibody at various concentrations was incubated with cells for 30 minutes at +4° C., then washed twice with wash buffer (BD-Biosciences 554723). Secondary antibodies a-mouse IgG-PE (Molecular Probes) was used for mouse monoclonal antibodies according to manufacturer's instructions and a-rabbit-IgG-PE (Molecular Probes) for rabbit monoclonal antibody (Abcam ERP8800). Three washes followed and fluorescence intensity in cells was quantified by FACS CantoII in PBS with cells in 2% FCS buffer.
(§2) The assay was performed on O-876 cancer cell line.

[4] = target: T1, native CLPTM1 in membrane-permeabilised …; experiment: flow cytometry on permeabilised O-876 cells, 10x dilution series; half-maximal binding
Protocol: CLPTM1 binding in permeabilised 0-876 cells expressing native CLPTM1 was measured in a 10× dilution series. […] The AbCam antibody also retained greater than 50% of its maximum binding at 0.1 μg/ml. The 59D04 antibody retained greater than 50% of its maximum binding at 1 μg/ml, whilst the Santa Cruz antibody had less than 50% of its maximum binding at this level.
as §1, with “Secondary antibodies a-mouse IgG-PE (Molecular Probes) was used for mouse monoclonal antibodies according to manufacturer's instructions and a-rabbit-IgG-PE (Molecular Probes) for rabbit monoclonal antibody (Abcam ERP8800).” left out

[5] = target: T1, native CLPTM1 in membrane-permeabilised …; experiment: flow cytometry on permeabilised O-876 cells, antibody dilution series, PE-labelled secondary antibody
Protocol: as §1, §2

Molecule “rabbit monoclonal anti-CLPTM1 antibody EPR8800 (RabMab, Abcam)” has an EC50 [1] of under 1 µg/mL and an EC50 [2] of under 0.1 µg/mL.

B1: anti-CLPTM1 mouse monoclonal antibody 7G12 (antibody, IgG1, V domains shown)
VH: QVQLQQSGTELVRPGTSVKVSCKASGYAFTNYLIEWVKQRPGQGLEWIGVINPGSGGTRYNEKFKGKATLTADKSSTTAHMQLSSLTSDDSAVYCARWGGNYSGYAMDYWGQGTSVTVSS
VL: QIVLTQSPVIMSASPGEKVTITCSASSSVSYMHWFQQKPGTSPKLWIYSTSNLASGVPARFSGSGSGTSYSLTISRMEAEDAATYYCQQRSSYPPTFGAGTKL
notes: Mouse monoclonal, IgG1 heavy chain, kappa light chain; The printed VL ends in 'TKL.' and may be incomplete; also called CLPTM1 clone 7G12 (IgG1)
With B1 the EC50 [3] was under 1 µg/mL, the EC50 [4] was under 0.1 µg/mL and the Kd [5] was under 1 nM.

B2: anti-CLPTM1 antibody 59D04 (format in the assay not stated) (antibody, V domains shown)
VH: EVQLVESGGGVVQPGRSLRLSCAASGFTFSTYAMHWVRQAPGKGLEWVAVISYDGTNKYYADSVKGRFTIFRDNSKNTLYLQMNSLRAEDTAVYYCGSGSYWGQGTLVTVSS
VL: QPVLTQPASVSGSPGQSITISCTGTSSDVGGYNYVSWYQQHPGKAPKLMIYEVTNRPSGVSDRFSGSKSGNTASLTISGLQAEDEADYYCSSYKSSNTVVFGGGTKVTVL
notes: Fully human antibody derived by phage display
B2 gave an EC50 [4] of under 1 µg/mL.
